The values below come from patent US10562936B2, “Ligands for integrin αvβ6, synthesis and uses thereof” (Technische Universitat Munchen, priority 2015, dated 2020).

The target of one experiment is T1, αvβ3 (Homo sapiens, UniProt P05106+P06756).
T1 construct: using coated extracellular matrix proteins and soluble integrins
As to the kind of experiment: Solid-phase integrin binding assay, αvβ3 (coated Vitronectin). On the procedure:
(§1) The activity and selectivity of integrin ligands were determined by a solid-phase binding assay according to the previously reported protocols using coated extracellular matrix proteins and soluble integrins: Fibronectin (Fn) for α5β1, latent activating protein (LAP) for αvβ6 and αvβ8, Vitronectin (Vn) for αvβ3 and αvβ5, Fibrinogen (Fbg) for aIIbβ3.

Another experiment deals with αvβ6 (Homo sapiens, UniProt P06756+P18564). As to the kind of experiment: Solid-phase integrin binding assay, αvβ6 (coated LAP, soluble integrin). The arrangement: using coated extracellular matrix proteins and soluble integrins. On the procedure:
as §1

A further experiment addresses T2, αvβ5 (Homo sapiens, UniProt P06756+P18084).
T2 construct: using coated extracellular matrix proteins and soluble integrins
As to the kind of experiment: Solid-phase integrin binding assay, αvβ5 (coated Vitronectin). On the procedure:
as §1

A further experiment concerns the target T3, αIIbβ3 (Homo sapiens, UniProt P05106+P08514).
T3 construct: using coated extracellular matrix proteins and soluble integrins
As to the kind of experiment: Solid-phase integrin binding assay, αIIbβ3 (coated Fibrinogen). On the procedure:
as §1

The target in experiment [1] is T4, integrin αvβ6 (soluble integrin) (UniProt P06756 31-992; P18564 22-707).
T4 construct: Only 'soluble integrins' is said
T4 sequence (P06756 31-992, chain 1 of 2): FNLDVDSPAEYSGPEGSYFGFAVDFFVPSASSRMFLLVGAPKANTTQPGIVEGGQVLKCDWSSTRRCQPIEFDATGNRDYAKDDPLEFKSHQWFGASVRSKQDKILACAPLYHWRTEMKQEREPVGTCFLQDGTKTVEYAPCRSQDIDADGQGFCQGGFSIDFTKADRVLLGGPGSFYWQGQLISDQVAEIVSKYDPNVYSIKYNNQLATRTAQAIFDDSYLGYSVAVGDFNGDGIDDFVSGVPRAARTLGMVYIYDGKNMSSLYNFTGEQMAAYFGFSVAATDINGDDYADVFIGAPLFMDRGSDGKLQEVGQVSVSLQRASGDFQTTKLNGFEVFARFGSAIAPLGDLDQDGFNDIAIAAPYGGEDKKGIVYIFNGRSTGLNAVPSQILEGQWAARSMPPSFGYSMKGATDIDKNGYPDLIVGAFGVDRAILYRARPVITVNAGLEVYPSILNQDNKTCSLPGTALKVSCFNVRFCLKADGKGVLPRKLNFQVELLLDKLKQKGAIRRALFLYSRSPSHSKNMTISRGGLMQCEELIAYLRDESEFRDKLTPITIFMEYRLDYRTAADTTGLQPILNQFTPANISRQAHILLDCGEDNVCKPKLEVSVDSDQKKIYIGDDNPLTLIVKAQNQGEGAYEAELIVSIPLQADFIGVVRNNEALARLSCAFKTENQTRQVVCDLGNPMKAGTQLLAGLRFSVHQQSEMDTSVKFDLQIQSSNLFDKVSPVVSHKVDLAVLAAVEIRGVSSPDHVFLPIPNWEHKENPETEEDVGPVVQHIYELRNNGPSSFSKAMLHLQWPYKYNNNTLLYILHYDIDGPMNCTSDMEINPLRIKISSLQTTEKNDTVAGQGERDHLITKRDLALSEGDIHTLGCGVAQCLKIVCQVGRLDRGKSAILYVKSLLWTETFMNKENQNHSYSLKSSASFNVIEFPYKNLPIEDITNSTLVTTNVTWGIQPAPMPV
T4 sequence (P18564 22-707, chain 2 of 2): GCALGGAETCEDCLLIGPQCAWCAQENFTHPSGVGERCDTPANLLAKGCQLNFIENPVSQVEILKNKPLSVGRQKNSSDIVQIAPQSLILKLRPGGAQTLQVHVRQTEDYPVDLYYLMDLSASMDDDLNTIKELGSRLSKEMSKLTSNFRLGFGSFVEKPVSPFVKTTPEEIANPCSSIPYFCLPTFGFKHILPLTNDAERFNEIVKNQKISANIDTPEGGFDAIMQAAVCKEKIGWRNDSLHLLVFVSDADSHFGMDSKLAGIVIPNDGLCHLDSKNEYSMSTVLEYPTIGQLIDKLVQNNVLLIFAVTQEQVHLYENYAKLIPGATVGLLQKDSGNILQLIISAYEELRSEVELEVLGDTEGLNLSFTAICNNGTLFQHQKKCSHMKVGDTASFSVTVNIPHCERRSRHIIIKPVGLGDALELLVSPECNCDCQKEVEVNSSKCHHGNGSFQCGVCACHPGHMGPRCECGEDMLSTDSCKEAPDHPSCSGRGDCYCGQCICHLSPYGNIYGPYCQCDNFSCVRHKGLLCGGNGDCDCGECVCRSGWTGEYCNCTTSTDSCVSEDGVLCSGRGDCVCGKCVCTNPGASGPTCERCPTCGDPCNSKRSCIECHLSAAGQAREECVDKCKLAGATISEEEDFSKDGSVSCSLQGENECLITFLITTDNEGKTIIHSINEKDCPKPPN
The experiment in a line: solid-phase binding assay, competition; coated LAP, soluble αvβ6.

Experiment [2] addresses T5, integrin αvβ3 (soluble integrin) (UniProt P06756 31-992; P05106 27-718).
T5 construct: Only 'soluble integrins' is said
The experiment in a line: solid-phase binding assay, competition; coated vitronectin, soluble αvβ3.

For experiment [3], the target named is T6, integrin αvβ8 (soluble integrin) (UniProt P06756 31-992; P26012 43-684).
T6 construct: Only 'soluble integrins' is said
T6 sequence (P06756 31-992, chain 1 of 2): as the sequence (P06756 31-992, chain 1 of 2) above
T6 sequence (P26012 43-684, chain 2 of 2): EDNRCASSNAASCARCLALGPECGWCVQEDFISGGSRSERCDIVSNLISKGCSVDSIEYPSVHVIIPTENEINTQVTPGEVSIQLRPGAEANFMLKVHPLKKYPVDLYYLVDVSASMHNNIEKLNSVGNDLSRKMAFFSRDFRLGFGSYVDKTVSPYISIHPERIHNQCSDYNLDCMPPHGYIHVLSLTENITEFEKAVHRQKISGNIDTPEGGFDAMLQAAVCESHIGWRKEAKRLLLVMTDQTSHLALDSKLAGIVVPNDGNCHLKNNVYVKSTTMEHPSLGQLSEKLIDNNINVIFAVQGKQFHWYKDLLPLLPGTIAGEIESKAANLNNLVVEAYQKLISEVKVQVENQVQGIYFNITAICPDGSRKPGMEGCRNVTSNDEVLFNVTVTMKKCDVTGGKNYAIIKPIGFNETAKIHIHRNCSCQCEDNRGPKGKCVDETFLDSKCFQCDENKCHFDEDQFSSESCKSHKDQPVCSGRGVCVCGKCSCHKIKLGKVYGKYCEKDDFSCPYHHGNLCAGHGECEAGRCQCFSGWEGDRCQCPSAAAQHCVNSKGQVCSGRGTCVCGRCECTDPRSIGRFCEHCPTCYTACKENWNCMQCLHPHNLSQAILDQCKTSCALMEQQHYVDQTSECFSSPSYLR
As to the kind of experiment: solid-phase binding assay, competition; coated LAP, soluble αvβ8.

Experiment [4] addresses T7, integrin α5β1 (soluble integrin) (UniProt P08648 42-995; P05556 21-728).
T7 construct: Only 'soluble integrins' is said
As to the kind of experiment: solid-phase binding assay, competition; coated fibronectin, soluble α5β1.

Where [5] appears, read: solid-phase binding assay, Vitronectin coated, read-out: αvβ3, IC50.
[6] abbreviates: solid-phase binding assay, Vitronectin coated, read-out: αvβ5, IC50.
The mark [7] stands for this setting: solid-phase binding assay, Fibrinogen coated, read-out: αIIbβ3, IC50.

Read-outs that look alike come from different tables or passages of the source. Square brackets hold non-standard residues; d marks the D form. Peptide text beside a SMILES is read from it. NMeK = CN[C@@H](CCCCN)C(=O)O; dNMeK = CN[C@H](CCCCN)C(=O)O; Sar = CNCC(=O)O

T3 sequence (P08514 32-1039): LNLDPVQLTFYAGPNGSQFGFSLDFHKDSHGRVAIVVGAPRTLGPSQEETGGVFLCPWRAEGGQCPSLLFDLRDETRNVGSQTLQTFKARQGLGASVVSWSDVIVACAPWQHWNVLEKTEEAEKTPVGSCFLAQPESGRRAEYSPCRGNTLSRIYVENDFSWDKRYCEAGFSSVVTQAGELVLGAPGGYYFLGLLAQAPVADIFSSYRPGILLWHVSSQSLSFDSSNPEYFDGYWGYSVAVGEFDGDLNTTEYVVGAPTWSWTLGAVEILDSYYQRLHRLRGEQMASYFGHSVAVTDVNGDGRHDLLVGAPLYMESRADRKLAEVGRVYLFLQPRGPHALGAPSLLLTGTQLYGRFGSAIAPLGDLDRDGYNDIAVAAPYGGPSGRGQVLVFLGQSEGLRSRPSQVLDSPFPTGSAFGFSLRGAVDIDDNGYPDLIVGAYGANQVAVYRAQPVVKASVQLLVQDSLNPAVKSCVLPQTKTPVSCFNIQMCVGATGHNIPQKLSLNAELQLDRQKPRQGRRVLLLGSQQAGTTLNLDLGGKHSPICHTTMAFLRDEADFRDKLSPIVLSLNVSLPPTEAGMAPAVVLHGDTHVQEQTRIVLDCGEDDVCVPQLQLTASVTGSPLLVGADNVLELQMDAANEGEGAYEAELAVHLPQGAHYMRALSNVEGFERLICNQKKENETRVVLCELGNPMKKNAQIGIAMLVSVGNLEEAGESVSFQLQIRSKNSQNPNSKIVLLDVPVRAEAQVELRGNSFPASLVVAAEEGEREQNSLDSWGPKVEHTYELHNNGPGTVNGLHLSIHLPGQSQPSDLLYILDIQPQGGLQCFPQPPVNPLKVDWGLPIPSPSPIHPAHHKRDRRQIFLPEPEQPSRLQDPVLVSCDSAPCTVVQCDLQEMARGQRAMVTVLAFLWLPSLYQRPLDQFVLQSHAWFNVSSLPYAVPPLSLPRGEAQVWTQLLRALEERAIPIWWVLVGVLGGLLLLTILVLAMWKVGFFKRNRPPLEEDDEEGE
T3 sequence (P05106 27-788): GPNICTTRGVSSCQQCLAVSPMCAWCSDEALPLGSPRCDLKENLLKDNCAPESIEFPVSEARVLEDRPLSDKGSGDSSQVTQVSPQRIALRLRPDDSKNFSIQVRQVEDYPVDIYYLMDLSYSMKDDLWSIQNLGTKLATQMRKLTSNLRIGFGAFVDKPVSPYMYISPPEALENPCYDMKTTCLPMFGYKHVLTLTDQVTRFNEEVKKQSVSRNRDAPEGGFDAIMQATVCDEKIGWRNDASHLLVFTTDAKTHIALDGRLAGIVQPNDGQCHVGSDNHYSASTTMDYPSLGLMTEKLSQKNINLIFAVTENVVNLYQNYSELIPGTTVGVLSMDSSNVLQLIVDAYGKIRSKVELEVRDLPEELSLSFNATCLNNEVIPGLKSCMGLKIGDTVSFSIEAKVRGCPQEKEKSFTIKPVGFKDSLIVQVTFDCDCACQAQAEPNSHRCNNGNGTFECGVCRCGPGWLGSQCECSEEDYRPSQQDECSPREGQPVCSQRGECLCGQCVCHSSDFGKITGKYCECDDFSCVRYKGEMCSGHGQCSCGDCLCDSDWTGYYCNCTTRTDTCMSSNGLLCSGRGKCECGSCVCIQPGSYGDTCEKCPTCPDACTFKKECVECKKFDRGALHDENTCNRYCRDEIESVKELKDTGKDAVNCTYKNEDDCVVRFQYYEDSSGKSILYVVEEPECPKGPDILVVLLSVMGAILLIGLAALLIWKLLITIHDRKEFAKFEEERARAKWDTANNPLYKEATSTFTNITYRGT
T5 sequence (P06756 31-992, chain 1 of 2): as the sequence (P06756 31-992, chain 1 of 2) above
T5 sequence (P05106 27-718, chain 2 of 2): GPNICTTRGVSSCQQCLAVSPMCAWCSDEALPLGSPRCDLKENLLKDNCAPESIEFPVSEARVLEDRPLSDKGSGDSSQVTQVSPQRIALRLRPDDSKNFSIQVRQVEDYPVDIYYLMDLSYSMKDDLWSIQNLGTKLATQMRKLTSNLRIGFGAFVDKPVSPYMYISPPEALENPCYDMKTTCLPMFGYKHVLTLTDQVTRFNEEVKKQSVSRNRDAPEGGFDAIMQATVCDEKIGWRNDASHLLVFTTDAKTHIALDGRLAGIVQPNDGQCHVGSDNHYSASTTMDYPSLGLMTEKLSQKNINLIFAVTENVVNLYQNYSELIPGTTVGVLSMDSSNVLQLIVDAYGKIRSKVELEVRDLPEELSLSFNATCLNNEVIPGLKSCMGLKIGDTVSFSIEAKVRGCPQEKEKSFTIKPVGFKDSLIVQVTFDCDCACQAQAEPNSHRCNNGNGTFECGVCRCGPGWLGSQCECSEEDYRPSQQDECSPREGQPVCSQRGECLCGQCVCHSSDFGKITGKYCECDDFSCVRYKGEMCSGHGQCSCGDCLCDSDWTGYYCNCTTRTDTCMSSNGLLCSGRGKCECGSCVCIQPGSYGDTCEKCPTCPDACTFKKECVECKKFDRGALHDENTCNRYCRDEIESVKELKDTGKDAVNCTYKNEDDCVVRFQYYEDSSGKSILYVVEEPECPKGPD
T1 sequence (P06756 31-992 limits assumed): as the sequence (P06756 31-992, chain 1 of 2) above
T1 sequence (P05106 27-718 limits assumed): as the sequence (P05106 27-718, chain 2 of 2) above

With `CC(C)C[C@@H]1NC(=O)[C@H](CC(=O)O)NC(=O)CNC(=O)[C@H](CCCNC(=N)N)NC(=O)[C@H](C)NC(=O)[C@@H]2CCCN2C(=O)[C@H]2CCCN2C(=O)[C@H](Cc2ccccc2)NC(=O)[C@H](C)NC1=O` [Compound 10, A R G D L A F p P] (cyclo(ARGDLAF[dP]P)), the IC50 – broadly, the concentration needed to halve the response being measured – on αvβ3 (setting [5]) was 104 nM; on αvβ6, 0.67 nM.

Turning to `CC(C)C[C@@H]1NC(=O)[C@H](CC(=O)O)NC(=O)CNC(=O)[C@H](CCCNC(=N)N)NC(=O)[C@H](C)NC(=O)[C@@H]2CCCN2C(=O)[C@H]2CCCN2C(=O)[C@H](CC(C)C)NC(=O)[C@H](C)NC1=O` [Compound 4, A R G D L A L p P] (cyclo(ARGDLAL[dP]P)), the IC50 was above 1000 nM at αvβ5 (setting [6]), above 1000 nM on αIIbβ3 (setting [7]), 106 nM at αvβ3 (setting [5]) and 3 nM on αvβ6.

With `CC(C)C[C@@H]1NC(=O)[C@H](CC(=O)O)NC(=O)CNC(=O)[C@H](CCCNC(=N)N)NC(=O)[C@H](C)NC(=O)[C@@H]2CCCN2C(=O)[C@H]2CCCN2C(=O)[C@H](CCCCN)NC(=O)[C@H](C)NC1=O` [Compound 11, A R G D L A K p P] (cyclo(ARGDLAK[dP]P)), the 50% inhibitory concentration (IC50) at αvβ5 (setting [6]) is above 1000 nM; on αIIbβ3 (setting [7]) it was above 1000 nM; on αvβ3 (setting [5]), 302 nM; on αvβ6, 1.51 nM.

Regarding `CC(=O)NCCCC[C@H]1C(=O)N[C@@H](Cc2ccccc2)C(=O)N[C@@H](CCCNC(=N)N)C(=O)NCC(=O)N[C@@H](CC(=O)O)C(=O)N[C@@H](CC(C)C)C(=O)N[C@@H](C)C(=O)N[C@@H](Cc2ccccc2)C(=O)N2CCC[C@@H]2C(=O)N1C` [Compound 23, F R G D L A F p (NMe)K^[f]], the IC50 on αvβ5 (setting [6]) is above 1000 nM; at αIIbβ3 (setting [7]), above 1000 nM; at αvβ3 (setting [5]), 640 nM; at αvβ6, 0.3 nM.

In the case of `CC(C)C[C@@H]1NC(=O)[C@H](CC(=O)O)NC(=O)CNC(=O)[C@H](CCCNC(=N)N)NC(=O)[C@H](C)NC(=O)[C@@H]2CCCN2C(=O)[C@H]2CCCN2C(=O)[C@H](CC(C)C)NC(=O)[C@H](C)NC(=O)[C@H](C)NC1=O` [Compound 1, A R G D L A A L p P] (cyclo(RGDLAAL[dP]PA)), the IC50 was above 1000 nM on αvβ5, above 1000 nM at αIIbβ3, 76.7 nM at αvβ3 and 8.3 nM on αvβ6.

As for `CC(C)C[C@@H]1NC(=O)[C@H](CC(=O)O)NC(=O)CNC(=O)[C@H](CCCNC(=N)N)NC(=O)[C@H](C)NC(=O)[C@@H]2CCCN2C(=O)[C@H]2CCCN2C(=O)[C@H](CC(C)C)NC(=O)[C@@H](CC(=O)O)NC1=O` [Compound 7, A R G D L d L p P] (cyclo(ARGDL[dD]L[dP]P)), the IC50 on αvβ3 (setting [5]) was above 1000 nM.

B1: Compound 2, cyclic peptide A R G D A A A L p P (peptide)
peptide: cyclo(ARGDAAAL[dP]P)
SMILES: CC(C)C[C@@H]1NC(=O)[C@H](C)NC(=O)[C@H](C)NC(=O)[C@H](C)NC(=O)[C@H](CC(=O)O)NC(=O)CNC(=O)[C@H](CCCNC(=N)N)NC(=O)[C@H](C)NC(=O)[C@@H]2CCCN2C(=O)[C@H]2CCCN2C1=O
notes: Comparative compound (*)
With B1, the IC50 in experiment [1] worked out at 320 nM.

B2: Compound 3, cyclic peptide A R G D L A A A p P (peptide)
peptide: cyclo(ARGDLAAA[dP]P)
SMILES: CC(C)C[C@@H]1NC(=O)[C@H](CC(=O)O)NC(=O)CNC(=O)[C@H](CCCNC(=N)N)NC(=O)[C@H](C)NC(=O)[C@@H]2CCCN2C(=O)[C@H]2CCCN2C(=O)[C@H](C)NC(=O)[C@H](C)NC(=O)[C@H](C)NC1=O
notes: Comparative compound (*)
In experiment [1], B2 returned an IC50 of 15.4 nM.

B3: Compound 14, cyclic peptide A R G D L A L Sar P (peptide)
peptide: cyclo(ARGDLAL[Sar]P)
SMILES: CC(C)C[C@@H]1NC(=O)[C@H](CC(=O)O)NC(=O)CNC(=O)[C@H](CCCNC(=N)N)NC(=O)[C@H](C)NC(=O)[C@@H]2CCCN2C(=O)CN(C)C(=O)[C@H](CC(C)C)NC(=O)[C@H](C)NC1=O
notes: Comparative compound (*)
Take B3: the IC50 in experiment [1] stood at 24.2 nM; in experiment [2], 85.1 nM.

B4: Compound 7, cyclic peptide A R G D L d L p P (peptide)
peptide: cyclo(ARGDL[dD]L[dP]P)
SMILES: CC(C)C[C@@H]1NC(=O)[C@H](CC(=O)O)NC(=O)CNC(=O)[C@H](CCCNC(=N)N)NC(=O)[C@H](C)NC(=O)[C@@H]2CCCN2C(=O)[C@H]2CCCN2C(=O)[C@H](CC(C)C)NC(=O)[C@@H](CC(=O)O)NC1=O
notes: Comparative compound (*)
As to B4, the half-maximal inhibitory concentration (IC50) in experiment [1] turned out to be 148 nM.

B5: Compound 16, cyclic peptide A R G D L A L (NMe)k P (peptide)
peptide: cyclo(ARGDLAL[dNMeK]P)
notes: Comparative compound (*)
As for B5, the IC50 in experiment [1] is 11.4 nM; in experiment [2] it was 50.4 nM.

B6: Compound 5, cyclic peptide A R G D L L p P (peptide)
peptide: cyclo(ARGDLL[dP]P)
SMILES: CC(C)C[C@@H]1NC(=O)[C@H](CC(=O)O)NC(=O)CNC(=O)[C@H](CCCNC(=N)N)NC(=O)[C@H](C)NC(=O)[C@@H]2CCCN2C(=O)[C@H]2CCCN2C(=O)[C@H](CC(C)C)NC1=O
notes: Comparative compound (*)
In the case of B6, the concentration for half-maximal inhibition (IC50) in experiment [1] turned out to be 292 nM.

B7: Compound 6, cyclic peptide A R G D L p P (peptide)
peptide: cyclo(ARGDL[dP]P)
SMILES: CC(C)C[C@@H]1NC(=O)[C@H](CC(=O)O)NC(=O)CNC(=O)[C@H](CCCNC(=N)N)NC(=O)[C@H](C)NC(=O)[C@@H]2CCCN2C(=O)[C@H]2CCCN2C1=O
notes: Comparative compound (*)
The molecule B7 displayed an IC50 in experiment [1] of 417 nM.

B8: Compound 13, cyclic peptide A R G D L A L p Sar (peptide)
peptide: cyclo(ARGDLAL[dP][Sar])
SMILES: CC(C)C[C@@H]1NC(=O)[C@H](CC(=O)O)NC(=O)CNC(=O)[C@H](CCCNC(=N)N)NC(=O)[C@H](C)NC(=O)CN(C)C(=O)[C@H]2CCCN2C(=O)[C@H](CC(C)C)NC(=O)[C@H](C)NC1=O
Take B8: the IC50 in experiment [1] amounted to 8.1 nM; in experiment [2], 87.7 nM.

B9: Compound 17, cyclic peptide A R G D L A F p (NMe)K (peptide)
peptide: cyclo(ARGDLAF[dP][NMeK])
SMILES: CC(C)C[C@@H]1NC(=O)[C@H](CC(=O)O)NC(=O)CNC(=O)[C@H](CCCNC(=N)N)NC(=O)[C@H](C)NC(=O)[C@H](CCCCN)N(C)C(=O)[C@H]2CCCN2C(=O)[C@H](Cc2ccccc2)NC(=O)[C@H](C)NC1=O
Regarding B9, the IC50 in experiment [1] is 0.7 nM; in experiment [2], 143 nM.

B10: Compound 21, cyclic peptide Y R G D L A F p (NMe)K (peptide)
peptide: YRGDLAFXX
modifications: head-to-tail cyclic; D-Pro (p) at position 8; N-methyl-Lys at position 9
With B10, the figures for the IC50 in experiment [1] and in experiment [2] were 0.4 nM and 432 nM, respectively.

B11: Compound 19, cyclic peptide F R G D L A Y p (NMe)K (peptide)
peptide: FRGDLAYXX
modifications: head-to-tail cyclic; D-Pro (p) at position 8; N-methyl-Lys at position 9
In the case of B11, the IC50 in experiment [1] was found to be 0.39 nM; in experiment [2], 685 nM.

B12: Compound 22, cyclic peptide W R G D L A F p (NMe)K (peptide)
peptide: cyclo(WRGDLAF[dP][NMeK])
SMILES: CC(C)C[C@@H]1NC(=O)[C@H](CC(=O)O)NC(=O)CNC(=O)[C@H](CCCNC(=N)N)NC(=O)[C@H](Cc2c[nH]c3ccccc23)NC(=O)[C@H](CCCCN)N(C)C(=O)[C@H]2CCCN2C(=O)[C@H](Cc2ccccc2)NC(=O)[C@H](C)NC1=O
B12 gave an IC50 in experiment [2] of 645 nM.

B13: Compound 15, cyclic peptide A R G D L A L p (NMe)K (peptide)
peptide: cyclo(ARGDLAL[dP][NMeK])
SMILES: CC(C)C[C@@H]1NC(=O)[C@H](CC(=O)O)NC(=O)CNC(=O)[C@H](CCCNC(=N)N)NC(=O)[C@H](C)NC(=O)[C@H](CCCCN)N(C)C(=O)[C@H]2CCCN2C(=O)[C@H](CC(C)C)NC(=O)[C@H](C)NC1=O
For the molecule B13, the figures for the IC50 in experiment [1] and in experiment [2] were 4.3 nM and 415 nM, respectively.

B14: Compound 20, cyclic peptide F R G D L A W p (NMe)K (peptide)
peptide: cyclo(FRGDLAW[dP][NMeK])
SMILES: CC(C)C[C@@H]1NC(=O)[C@H](CC(=O)O)NC(=O)CNC(=O)[C@H](CCCNC(=N)N)NC(=O)[C@H](Cc2ccccc2)NC(=O)[C@H](CCCCN)N(C)C(=O)[C@H]2CCCN2C(=O)[C@H](Cc2c[nH]c3ccccc23)NC(=O)[C@H](C)NC1=O
With B14, the IC50 turned out to be 0.12 nM in experiment [1] and 204 nM in experiment [2].

B15: Compound 9, cyclic peptide A R G D F A L p P (peptide)
peptide: cyclo(ARGDFAL[dP]P)
SMILES: CC(C)C[C@@H]1NC(=O)[C@H](C)NC(=O)[C@H](Cc2ccccc2)NC(=O)[C@H](CC(=O)O)NC(=O)CNC(=O)[C@H](CCCNC(=N)N)NC(=O)[C@H](C)NC(=O)[C@@H]2CCCN2C(=O)[C@H]2CCCN2C1=O
notes: Comparative compound (*)
B15: the IC50 in experiment [1] worked out at 63.4 nM; in experiment [2], 65.2 nM.

B16: Compound 12, cyclic peptide F R G D L A L p P (peptide)
peptide: cyclo(FRGDLAL[dP]P)
SMILES: CC(C)C[C@@H]1NC(=O)[C@H](CC(=O)O)NC(=O)CNC(=O)[C@H](CCCNC(=N)N)NC(=O)[C@H](Cc2ccccc2)NC(=O)[C@@H]2CCCN2C(=O)[C@H]2CCCN2C(=O)[C@H](CC(C)C)NC(=O)[C@H](C)NC1=O
notes: also called Cpd; 12
As for B16, the IC50 in experiment [3] amounted to 127 nM; in experiment [4], 254 nM.
